The values that follow come from patent US20050266009A1.

Experiment in all cases: ELISA on coated peptide
(ELISA stands for enzyme-linked immunosorbent assay.)

Test [1] has as its target T1, CCR5 (residues 1-18) derived peptide sulfated at 1st tyrosine position.
T1 sequence (peptide, sulfated at 1st tyrosine position): MDYQVSSPIYDINYYTSE

Test [2] has as its target T2, CCR5 (residues 1-18) derived peptide sulfated at 2nd tyrosine position.
T2 sequence (peptide, sulfated at 2nd tyrosine position): MDYQVSSPIYDINYYTSE

For test [3], the target named is T3, CCR5 (residues 1-18) derived peptide sulfated at 3rd tyrosine position.
T3 sequence (peptide, sulfated at 3rd tyrosine position): MDYQVSSPIYDINYYTSE

Test [4] has as its target T4, CCR5 (residues 1-18) derived peptide, non-sulfated.
T4 sequence (peptide): MDYQVSSPIYDINYYTSE

Test [5] addresses T5, GPIb (residues 268-285) derived peptide sulfated at 1st tyrosine position.
T5 sequence (peptide, sulfated at 1st tyrosine position): GDEGDTDLYDYYPEEDTE

Test [6] concerns the target T6, GPIb (residues 268-285) derived peptide sulfated at 3rd tyrosine position.
T6 sequence (peptide, sulfated at 3rd tyrosine position): GDEGDTDLYDYYPEEDTE

The target in test [7] is T7, GPIb (residues 268-285) derived peptide, non-sulfated.
T7 sequence (peptide): GDEGDTDLYDYYPEEDTE

Test [8] addresses T8, PSGL-1 (residues 42-58) derived peptide sulfated at 1st tyrosine position.
T8 sequence (peptide, sulfated at 1st tyrosine position): QATEYEYLDYDFLPETE

Test [9] addresses T9, PSGL-1 (residues 42-58) derived peptide sulfated at 2nd tyrosine position.
T9 sequence (peptide, sulfated at 2nd tyrosine position): QATEYEYLDYDFLPETE

Test [10] addresses T10, PSGL-1 (residues 42-58) derived peptide sulfated at 3rd tyrosine position.
T10 sequence (peptide, sulfated at 3rd tyrosine position): QATEYEYLDYDFLPETE

Test [11] concerns the target T11, PSGL-1 (residues 42-58) derived peptide, non-sulfated.
T11 sequence (peptide): QATEYEYLDYDFLPETE

On to N06 scFv (negative control), for which the ELISA reading at 450 nm was found to be 0.06 in test [1]; 0.06 in test [2]; 0.06 in [3]; 0.06 in test [4]; 0.07 in [5]; 0.07 in test [6]. The ELISA reading at 450 nm in [7] was found to be 0.07; in test [8] it was 0.06; in [9], 0.06; in [10], 0.06; in test [11], 0.06.
